{"source": "patent US12467929", "key": {"[1]": {"biological_target": "recombinant UBE3A protein (Homo sapiens (Human)) (UniProt Q05086)", "sequence (Q05086 whole entry)": "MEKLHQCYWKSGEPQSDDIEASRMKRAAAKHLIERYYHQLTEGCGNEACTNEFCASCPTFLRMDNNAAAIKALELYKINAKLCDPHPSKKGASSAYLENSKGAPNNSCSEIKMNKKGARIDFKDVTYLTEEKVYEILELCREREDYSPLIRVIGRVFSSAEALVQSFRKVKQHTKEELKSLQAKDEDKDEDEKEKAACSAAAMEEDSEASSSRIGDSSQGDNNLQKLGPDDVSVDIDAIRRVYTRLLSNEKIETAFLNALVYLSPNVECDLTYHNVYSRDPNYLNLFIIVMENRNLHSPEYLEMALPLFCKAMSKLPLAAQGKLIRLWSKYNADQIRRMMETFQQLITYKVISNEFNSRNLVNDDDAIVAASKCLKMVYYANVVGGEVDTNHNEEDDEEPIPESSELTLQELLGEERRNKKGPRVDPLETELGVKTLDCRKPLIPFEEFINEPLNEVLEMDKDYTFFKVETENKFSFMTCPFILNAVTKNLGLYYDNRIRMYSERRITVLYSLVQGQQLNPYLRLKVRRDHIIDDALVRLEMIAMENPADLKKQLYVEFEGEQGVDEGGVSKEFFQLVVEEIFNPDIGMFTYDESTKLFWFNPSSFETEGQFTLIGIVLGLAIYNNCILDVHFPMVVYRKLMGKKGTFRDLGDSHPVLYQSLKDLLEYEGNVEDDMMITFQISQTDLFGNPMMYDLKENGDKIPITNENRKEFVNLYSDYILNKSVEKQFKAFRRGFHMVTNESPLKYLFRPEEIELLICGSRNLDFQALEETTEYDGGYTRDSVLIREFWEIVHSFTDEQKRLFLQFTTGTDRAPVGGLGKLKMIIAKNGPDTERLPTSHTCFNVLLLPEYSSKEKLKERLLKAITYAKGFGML", "test": "2-step Simoa; capture GTX; UBE3A 500 ng/ml"}, "[2]": {"biological_target": "recombinant UBE3A protein (Homo sapiens (Human)) (UniProt Q05086)", "test": "Simoa; capture GTX; SBG 75 pm; UBE3A 0.800 ng/ml"}, "[3]": {"biological_target": "recombinant UBE3A protein (Homo sapiens (Human)) (UniProt Q05086)", "test": "Simoa; capture GTX, no helper beads; 3E5 0.4 ug/ml; UBE3A 0.800 ng/ml"}, "[4]": {"biological_target": "recombinant UBE3A protein (Homo sapiens (Human)) (UniProt Q05086)", "test": "Simoa; capture GTX, no helper beads; 3E5 0.4 ug/ml; UBE3A 4.00 ng/ml"}, "[5]": {"biological_target": "recombinant UBE3A protein (Homo sapiens (Human)) (UniProt Q05086)", "test": "Simoa head-to-head, Table 11; capture MS 2F6; UBE3A 0.80 ng/ml"}, "[6]": {"biological_target": "recombinant UBE3A protein (Homo sapiens (Human)) (UniProt Q05086)", "test": "Simoa; capture GTX; 3E5 0.8 ug/ml; UBE3A 0.00640 ng/ml"}, "[7]": {"biological_target": "recombinant UBE3A protein (Homo sapiens (Human)) (UniProt Q05086)", "test": "Simoa; capture GTX; SBG 100 pm; UBE3A 0.160 ng/ml"}, "[8]": {"biological_target": "recombinant UBE3A protein (Homo sapiens (Human)) (UniProt Q05086)", "test": "Simoa; capture GTX; 3E5 0.4 ug/ml; UBE3A 0.0320 ng/ml"}, "[9]": {"biological_target": "recombinant UBE3A protein (Homo sapiens (Human)) (UniProt Q05086)", "test": "Simoa head-to-head, Table 11; capture GTX; UBE3A 4.00 ng/ml"}, "[10]": {"biological_target": "recombinant UBE3A protein (Homo sapiens (Human)) (UniProt Q05086)", "test": "Simoa; capture GTX + helper beads; 3E5 0.1 ug/ml; UBE3A 0.160 ng/ml"}, "[11]": {"biological_target": "recombinant UBE3A protein (Homo sapiens (Human)) (UniProt Q05086)", "test": "Simoa; capture GTX; 3E5 0.8 ug/ml; UBE3A 0.0320 ng/ml"}, "[12]": {"biological_target": "recombinant UBE3A protein (Homo sapiens (Human)) (UniProt Q05086)", "test": "Simoa; capture GTX + helper beads; 3E5 0.2 ug/ml; UBE3A 0.00128 ng/ml"}, "[13]": {"biological_target": "recombinant UBE3A protein (Homo sapiens (Human)) (UniProt Q05086)", "test": "Simoa; capture GTX, no helper beads; 3E5 0.2 ug/ml; UBE3A 20.0 ng/ml"}, "[14]": {"biological_target": "recombinant UBE3A protein (Homo sapiens (Human)) (UniProt Q05086)", "test": "Simoa; capture GTX; 3E5 0.4 ug/ml; UBE3A 0.00640 ng/ml"}, "[15]": {"biological_target": "recombinant UBE3A protein (Homo sapiens (Human)) (UniProt Q05086)", "test": "Simoa; capture GTX, no helper beads; 3E5 0.1 ug/ml; UBE3A 0.0320 ng/ml"}, "[16]": {"biological_target": "recombinant UBE3A protein (Homo sapiens (Human)) (UniProt Q05086)", "test": "3-step Simoa, 120 min bead step; capture GTX; UBE3A 0.800 ng/ml"}, "[17]": {"biological_target": "recombinant UBE3A protein (Homo sapiens (Human)) (UniProt Q05086)", "test": "Simoa; capture GTX; SBG 75 pm; UBE3A 0.00128 ng/ml"}, "[18]": {"biological_target": "recombinant UBE3A protein (Homo sapiens (Human)) (UniProt Q05086)", "test": "Simoa; capture GTX; SBG 150 pm; UBE3A 20.0 ng/ml"}, "[19]": {"biological_target": "recombinant UBE3A protein (Homo sapiens (Human)) (UniProt Q05086)", "test": "Simoa head-to-head, Table 10; capture MS 2F6; UBE3A 0.80 ng/ml"}, "[20]": {"biological_target": "recombinant UBE3A protein (Homo sapiens (Human)) (UniProt Q05086)", "test": "Simoa; capture GTX; SBG 75 pm; UBE3A 20.0 ng/ml"}}}
{"substance": "NB500-240 (Novus) (antibody)", "values": [{"measurement": "AEB1", "setting": "[1]", "result": 0.303}, {"measurement": "AEB2", "setting": "[1]", "result": 0.308}, {"measurement": "Ave AEB", "setting": "[1]", "result": 0.305}, {"measurement": "Signal to Background", "setting": "[1]", "result": 93.4}]}
{"substance": "anti-UBE3A antibody 3E5 (SAB1404508-100 ug, Millipore-Sigma)", "values": [{"measurement": "AEB1", "setting": "[2]", "result": 0.078}, {"measurement": "AEB2", "setting": "[2]", "result": 0.115}, {"measurement": "AEB3", "setting": "[2]", "result": 0.126}, {"measurement": "Average AEB", "setting": "[2]", "result": 0.106}, {"measurement": "Signal to Background", "setting": "[2]", "result": 24.3}, {"measurement": "AEB1", "setting": "[3]", "result": 0.335}, {"measurement": "AEB2", "setting": "[3]", "result": 0.338}, {"measurement": "Average AEB", "setting": "[3]", "result": 0.337}, {"measurement": "Signal to Background", "setting": "[3]", "result": 17.2}, {"measurement": "AEB1", "setting": "[4]", "result": 1.1}, {"measurement": "AEB2", "setting": "[4]", "result": 1.11}, {"measurement": "Average AEB", "setting": "[4]", "result": 1.11}, {"measurement": "Signal to Background", "setting": "[4]", "result": 56.7}, {"measurement": "AEB1", "setting": "[5]", "result": 0.0183}, {"measurement": "AEB2", "setting": "[5]", "result": 0.0197}, {"measurement": "Ave AEB", "setting": "[5]", "result": 0.019}, {"measurement": "Signal to Background", "setting": "[5]", "result": 5.03}, {"measurement": "AEB1", "setting": "[6]", "result": 0.114}, {"measurement": "AEB2", "setting": "[6]", "result": 0.127}, {"measurement": "AEB3", "setting": "[6]", "result": 0.117}, {"measurement": "Average AEB", "setting": "[6]", "result": 0.12}, {"measurement": "Signal to Background", "setting": "[6]", "result": 0.976}, {"measurement": "AEB1", "setting": "[7]", "result": 0.0582}, {"measurement": "AEB2", "setting": "[7]", "result": 0.0586}, {"measurement": "AEB3", "setting": "[7]", "result": 0.0574}, {"measurement": "Average AEB", "setting": "[7]", "result": 0.0581}, {"measurement": "Signal to Background", "setting": "[7]", "result": 6.93}, {"measurement": "AEB1", "setting": "[8]", "result": 0.0958}, {"measurement": "AEB2", "setting": "[8]", "result": 0.0924}, {"measurement": "AEB3", "setting": "[8]", "result": 0.095}, {"measurement": "Average AEB", "setting": "[8]", "result": 0.0944}, {"measurement": "Signal to Background", "setting": "[8]", "result": 1.51}, {"measurement": "AEB1", "setting": "[9]", "result": 0.269}, {"measurement": "AEB2", "setting": "[9]", "result": 0.262}, {"measurement": "Ave AEB", "setting": "[9]", "result": 0.266}, {"measurement": "Signal to Background", "setting": "[9]", "result": 32.4}, {"measurement": "AEB1", "setting": "[10]", "result": 0.0417}, {"measurement": "AEB2", "setting": "[10]", "result": 0.0425}, {"measurement": "Average AEB", "setting": "[10]", "result": 0.0421}, {"measurement": "Signal to Background", "setting": "[10]", "result": 7.34}, {"measurement": "AEB1", "setting": "[11]", "result": 0.144}, {"measurement": "AEB2", "setting": "[11]", "result": 0.138}, {"measurement": "AEB3", "setting": "[11]", "result": 0.152}, {"measurement": "Average AEB", "setting": "[11]", "result": 0.145}, {"measurement": "Signal to Background", "setting": "[11]", "result": 1.18}, {"measurement": "AEB1", "setting": "[12]", "result": 0.0127}, {"measurement": "AEB2", "setting": "[12]", "result": 0.0115}, {"measurement": "Average AEB", "setting": "[12]", "result": 0.0121}, {"measurement": "Signal to Background", "setting": "[12]", "result": 1.25}, {"measurement": "AEB1", "setting": "[13]", "result": 4.96}, {"measurement": "AEB2", "setting": "[13]", "result": 5}, {"measurement": "Average AEB", "setting": "[13]", "result": 4.98}, {"measurement": "Signal to Background", "setting": "[13]", "result": 514}, {"measurement": "AEB1", "setting": "[14]", "result": 0.0671}, {"measurement": "AEB2", "setting": "[14]", "result": 0.0638}, {"measurement": "AEB3", "setting": "[14]", "result": 0.0865}, {"measurement": "Average AEB", "setting": "[14]", "result": 0.0725}, {"measurement": "Signal to Background", "setting": "[14]", "result": 1.16}, {"measurement": "AEB1", "setting": "[15]", "result": 0.0108}, {"measurement": "AEB2", "setting": "[15]", "result": 0.0159}, {"measurement": "Average AEB", "setting": "[15]", "result": 0.0133}, {"measurement": "Signal to Background", "setting": "[15]", "result": 2.33}, {"measurement": "AEB1", "setting": "[16]", "result": 0.151}, {"measurement": "AEB2", "setting": "[16]", "result": 0.154}, {"measurement": "Ave AEB", "setting": "[16]", "result": 0.152}, {"measurement": "Signal to Background", "setting": "[16]", "result": 89.4}, {"measurement": "AEB1", "setting": "[17]", "result": 0.0046}, {"measurement": "AEB2", "setting": "[17]", "result": 0.0045}, {"measurement": "AEB3", "setting": "[17]", "result": 0.0047}, {"measurement": "Average AEB", "setting": "[17]", "result": 0.0046}, {"measurement": "Signal to Background", "setting": "[17]", "result": 1.06}, {"measurement": "AEB1", "setting": "[18]", "result": 5.87}, {"measurement": "AEB2", "setting": "[18]", "result": 5.57}, {"measurement": "AEB3", "setting": "[18]", "result": 5.72}, {"measurement": "Average AEB", "setting": "[18]", "result": 5.72}, {"measurement": "Signal to Background", "setting": "[18]", "result": 431}, {"measurement": "AEB1", "setting": "[19]", "result": 0.0353}, {"measurement": "AEB2", "setting": "[19]", "result": 0.037}, {"measurement": "Ave AEB", "setting": "[19]", "result": 0.0361}, {"measurement": "Signal to Background", "setting": "[19]", "result": 2.67}, {"measurement": "AEB1", "setting": "[20]", "result": 2.44}, {"measurement": "AEB2", "setting": "[20]", "result": 2.81}, {"measurement": "AEB3", "setting": "[20]", "result": 2.75}, {"measurement": "Average AEB", "setting": "[20]", "result": 2.67}, {"measurement": "Signal to Background", "setting": "[20]", "result": 611}]}
